Source: publication PMC6469932 (Biochemistry, 2018)

Key:
crystal structure = biological target: the molecule itself; test: crystal structure
purified protein [1] = substrate: O=C(O)C(=O)CO; test: purified protein; format: biochemical, Sinorhizobium meliloti; conditions: 0.4 mM NADPH, 150 mM NaCl, 150 mM Tris-HCl pH 7.5, 25 °C
purified protein [2] = substrate: CC(=O)C(=O)O; test: purified protein; format: biochemical, Sinorhizobium meliloti; conditions: 0.4 mM NADPH, 150 mM NaCl, 150 mM Tris-HCl pH 7.5, 25 °C
purified protein [3] = substrate: O=C(O)C(=O)Cc1ccccc1; test: purified protein; format: biochemical, Sinorhizobium meliloti; conditions: 0.4 mM NADPH, 150 mM NaCl, 150 mM Tris-HCl pH 7.5, 25 °C
purified protein [4] = substrate: O=C(O)C(=O)[C@@H](O)[C@H](O)[C@H](O)CO; test: purified protein; format: biochemical, Sinorhizobium meliloti; conditions: 0.4 mM NADPH, 150 mM NaCl, 150 mM Tris-HCl pH 7.5, 25 °C

| Protein | stoichiometry N (crystal structure) | K0.5 (purified protein [1]) | kcat/Km (purified protein [1]) | K0.5 (purified protein [2]) | kcat/Km (purified protein [2]) | K0.5 (purified protein [3]) | kcat/Km (purified protein [3]) | K0.5 (purified protein [4]) | kcat/Km (purified protein [4]) |
| --- | --- | --- | --- | --- | --- | --- | --- | --- | --- |
| SmGhrA, glyoxylate/hydroxypyruvate reductase of subfamily GHRA from Sinorhizobium meliloti 1021 (enzyme, UniProt Q92T34 1-319, looked up) MPAKSPVIVDLKFIPEEVEAALAGAFPGREVIDLADPAHQERDLSGIDYAVVWKSAPDLFSRAPDLKVVFSGGAGVDHVLTLPGLPDVPLVRFVDRTLTTRMSEWVMMQCLLHLRQHRAYEALAKKHEWRDLSQPEAADVTVGIMGMGVLGQDAARKLAAMGFKVIGWSRSKRVIEGVETYDAAGLDAFLGRTDFLVGLLPLTPDTRGIFNAALFAKLSRNGPFGAPVFINAGRGGSQVEADILECLDSGVLGGASLDVFEREPLSPESRFWDMPNVYVTPHVAASSDVRALFVHVEHQIARFESGLPLEHVVDKVAGY | 2 | 9.35 ± 0.86 mM | 1200 ± 61 M⁻¹ s⁻¹ | 9.69 ± 0.80 mM | 57.3 ± 3.4 M⁻¹ s⁻¹ | 6.58 ± 0.73 mM | 267 ± 18 M⁻¹ s⁻¹ | – | – |
| SmGhrB, glyoxylate/hydroxypyruvate reductase of subfamily GHRB from Sinorhizobium meliloti 1021 (enzyme, UniProt Q92LZ4 1-322, looked up) MSRPRILVPGKINPRVLERLPEMFETVRIERADAALVTADMRDVSGIAVSGKLPVPLMDAFPSLEIVANFGVGYDGVDVSRAAARGIVVTNTPDVLTEEVADTAIGLLLNTLRLLPQAEQWLRQGRWVREGAFPLSPLSLRGRTVGLFGLGRIGLAIARRLEAFGVSIAYHTRTPREGLGFTYHPTLVGMAEAVDTLIVIVPGTASTLKAVNADVLSALGPKGVLINVGRGSTVDEAALVTALQNGTIAGAGLDVFENEPNVPEALLSFPNVSLLPHVASASVVTRNAMSDLVVDNLKAWFSTGEALTPVAETPFRRRAIQN | 2 | – | – | – | – | 5.59 ± 0.92 mM | 372 ± 38 M⁻¹ s⁻¹ | 11.0 ± 2.0 mM | 935 ± 84 M⁻¹ s⁻¹ |
